Laboratory results reported in patent publication US20140105889A1 (published 2014).

T1: human FcγRIIb (human, UniProt P31994 43-217)
T1 construct: also called FcγIIB; FcγRIIb extracellular region
T1 sequence: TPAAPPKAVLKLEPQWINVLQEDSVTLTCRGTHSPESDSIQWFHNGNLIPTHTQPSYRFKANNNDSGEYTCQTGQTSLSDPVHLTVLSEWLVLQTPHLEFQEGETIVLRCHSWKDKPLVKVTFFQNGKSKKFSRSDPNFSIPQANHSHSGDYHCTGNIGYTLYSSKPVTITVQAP

T2: human FcγRIIa type R (human, UniProt P12318 36-217)
T2 construct: also called Fcγ RIIaR; FcγRIIa(R)
T2 chain: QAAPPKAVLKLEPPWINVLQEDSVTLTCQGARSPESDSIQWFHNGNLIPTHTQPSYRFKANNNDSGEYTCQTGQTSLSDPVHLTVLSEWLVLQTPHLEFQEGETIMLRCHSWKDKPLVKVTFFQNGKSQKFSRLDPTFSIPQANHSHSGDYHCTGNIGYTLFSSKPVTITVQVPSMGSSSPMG

T3: human FcγRIIb (human, UniProt P31994 43-217, limits assumed)
T3 construct: also called FcγIIB; hFcgRIIb
T3 sequence: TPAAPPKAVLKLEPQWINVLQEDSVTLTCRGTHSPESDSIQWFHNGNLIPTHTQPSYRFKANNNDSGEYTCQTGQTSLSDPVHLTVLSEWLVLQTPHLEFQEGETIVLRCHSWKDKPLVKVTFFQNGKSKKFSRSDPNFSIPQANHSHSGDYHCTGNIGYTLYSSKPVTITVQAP

T4: FcγRIIb (human, UniProt P31994 43-217, limits assumed)
T4 construct: also called FcγIIB; FcgRIIb
T4 sequence: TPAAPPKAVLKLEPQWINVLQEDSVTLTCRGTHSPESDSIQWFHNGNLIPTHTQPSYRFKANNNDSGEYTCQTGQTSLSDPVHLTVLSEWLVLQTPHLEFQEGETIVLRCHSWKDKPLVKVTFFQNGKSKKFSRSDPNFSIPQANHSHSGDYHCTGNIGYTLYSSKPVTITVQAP

B1: IL6R-PD097/IL6R-L (antibody, human IgG1)
heavy: QVQLQESGPGLVKPSETLSLTCAVSGHSISHDHAWSWVRQPPGEGLEWIGFISYSGITNYNPSLQGRVTISRDNSKNTLYLQMNSLRAEDTAVYYCARSLARTTAMDYWGEGTLVTVSSASTKGPSVFPLAPSSKSTSGGTAALGCLVKDYFPEPVTVSWNSGALTSGVHTFPAVLQSSGLYSLSSVVTVPSSSLGTQTYICNVNHKPSNTKVDKKVEPKSCDKTHTCPPCPAPELLGGDDVFLFPPKPKDTLYISRTPEVTCVVVDVSHEDPEVKFNWYVDGVEVHNAKTKPREEQYNSTYRVVSVLTVLHQDWLNGKEYKCKVSNKALPAPIEKTISKAKGQPREPQVYTLPPSRDELTKNQVSLTCLVKGFYPSDIAVEWESNGQPENNYKTTPPVLDSDGSFFLYSKLTVDKSRWQQGNVFSCSVMHEALHYHYTQKSLSLSP
light: DIQMTQSPSSLSASVGDRVTITCRASQDISSYLNWYQQKPGKAPKLLIYYTSRLHSGVPSRFSGSGSGTDFTFTISSLQPEDIATYYCQQGNTLPYTFGQGTKVEIK
notes: PD variant: P238D/S239D introduced into IL6R-F11 (EU numbering); copies: 2 + 2
B2: IL6R-BP088/IL6R-L (antibody, human IgG1)
heavy: QVQLQESGPGLVKPSETLSLTCAVSGHSISHDHAWSWVRQPPGEGLEWIGFISYSGITNYNPSLQGRVTISRDNSKNTLYLQMNSLRAEDTAVYYCARSLARTTAMDYWGEGTLVTVSSASTKGPSVFPLAPSSKSTSGGTAALGCLVKDYFPEPVTVSWNSGALTSGVHTFPAVLQSSGLYSLSSVVTVPSSSLGTQTYICNVNHKPSNTKVDKKVEPKSCDKTHTCPPCPAPELLGDDSVFLFPPKPKDTLMISRTPEVTCVVVDVSHEDPEVKFNWYVDGVEVHNAKTKPREEQYNSTYRVVSVLTVLHQDWLNGKEYKCKVSNAALPKPIEKTISKAKGQPREPQVYTLPPSRDELTKNQVSLTCLVKGFYPSDIAVEWESNGQPENNYKTTPPVLDSDGSFFLYSKLTVDKSRWQQGNVFSCSVMHEALHNHYTQESLSLSP
light: DIQMTQSPSSLSASVGDRVTITCRASQDISSYLNWYQQKPGKAPKLLIYYTSRLHSGVPSRFSGSGSGTDFTFTISSLQPEDIATYYCQQGNTLPYTFGQGTKVEIK
notes: copies: 2 + 2
B3: IL6R-BP086/IL6R-L (antibody, human IgG1)
heavy: QVQLQESGPGLVKPSETLSLTCAVSGHSISHDHAWSWVRQPPGEGLEWIGFISYSGITNYNPSLQGRVTISRDNSKNTLYLQMNSLRAEDTAVYYCARSLARTTAMDYWGEGTLVTVSSASTKGPSVFPLAPSSKSTSGGTAALGCLVKDYFPEPVTVSWNSGALTSGVHTFPAVLQSSGLYSLSSVVTVPSSSLGTQTYICNVNHKPSNTKVDKKVEPKSCDKTHTCPPCPAPELLGGDSVFLFPPKPKDTLMISRTPEVTCVVVDVSHEDPEVKFNWYVDGVEVHNAKTKPREEQYNSTYRVVSVLTVLHQDWLNGKEYKCKVSNAALPKPIEKTISKAKGQPREPQVYTLPPSRDELTKNQVSLTCLVKGFYPSDIAVEWESNGQPENNYKTTPPVLDSDGSFFLYSKLTVDKSRWQQGNVFSCSVMHEALHNHYTQESLSLSP
light: DIQMTQSPSSLSASVGDRVTITCRASQDISSYLNWYQQKPGKAPKLLIYYTSRLHSGVPSRFSGSGSGTDFTFTISSLQPEDIATYYCQQGNTLPYTFGQGTKVEIK
notes: copies: 2 + 2
B4: IL6R-BP151/IL6R-L (antibody, human IgG1)
heavy: QVQLQESGPGLVKPSETLSLTCAVSGHSISHDHAWSWVRQPPGEGLEWIGFISYSGITNYNPSLQGRVTISRDNSKNTLYLQMNSLRAEDTAVYYCARSLARTTAMDYWGEGTLVTVSSASTKGPSVFPLAPSSKSTSGGTAALGCLVKDYFPEPVTVSWNSGALTSGVHTFPAVLQSSGLYSLSSVVTVPSSSLGTQTYICNVNHKPSNTKVDKKVEPKSCDKTHTCPPCPAPDYLGDDSVFLFPPKPKDTLMISRTPEVTCVVVDVSHEDPEVKFNWYVDGVEVHNAKTKPREEQYNSTYRVVSVLTVLHQDWLNGKEYKCKVSNAALPRPIEKTISKAKGQPREPQVYTLPPSRDELTKNQVSLTCLVKGFYPSDIAVEWESNGQPENNYKTTPPVLDSDGSFFLYSKLTVDKSRWQQGNVFSCSVMHEALHNHYTQESLSLSP
light: DIQMTQSPSSLSASVGDRVTITCRASQDISSYLNWYQQKPGKAPKLLIYYTSRLHSGVPSRFSGSGSGTDFTFTISSLQPEDIATYYCQQGNTLPYTFGQGTKVEIK
notes: EU numbering
B5: IL6R-BP145/IL6R-L (antibody, human IgG1)
heavy: QVQLQESGPGLVKPSETLSLTCAVSGHSISHDHAWSWVRQPPGEGLEWIGFISYSGITNYNPSLQGRVTISRDNSKNTLYLQMNSLRAEDTAVYYCARSLARTTAMDYWGEGTLVTVSSASTKGPSVFPLAPSSKSTSGGTAALGCLVKDYFPEPVTVSWNSGALTSGVHTFPAVLQSSGLYSLSSVVTVPSSSLGTQTYICNVNHKPSNTKVDKKVEPKSCDKTHTCPPCPAPEYLGDDSVFLFPPKPKDTLMISRTPEVTCVVVDVSHEDPEVKFNWYVDGVEVHNAKTKPREEQYNSTYRVVSVLTVLHQDWLNGKEYKCKVSNKALPAPIEKTISKAKGQPREPQVYTLPPSRDELTKNQVSLTCLVKGFYPSDIAVEWESNGQPENNYKTTPPVLDSDGSFFLYSKLTVDKSRWQQGNVFSCSVMHEALHNHYTQESLSLSP
light: DIQMTQSPSSLSASVGDRVTITCRASQDISSYLNWYQQKPGKAPKLLIYYTSRLHSGVPSRFSGSGSGTDFTFTISSLQPEDIATYYCQQGNTLPYTFGQGTKVEIK
notes: copies: 2 + 2
B6: IL6R-G1d/IL6R-L (antibody, human IgG1)
heavy: not shown
light: DIQMTQSPSSLSASVGDRVTITCRASQDISSYLNWYQQKPGKAPKLLIYYTSRLHSGVPSRFSGSGSGTDFTFTISSLQPEDIATYYCQQGNTLPYTFGQGTKVEIK
notes: Anti-human IL-6 receptor IgG1 with the G1d constant region (C-terminal Gly and Lys removed); template used for producing IL6R-B3; also called IgG1; copies: 2 + 2
B7: IL6R-BP150/IL6R-L (antibody, human IgG1)
heavy: QVQLQESGPGLVKPSETLSLTCAVSGHSISHDHAWSWVRQPPGEGLEWIGFISYSGITNYNPSLQGRVTISRDNSKNTLYLQMNSLRAEDTAVYYCARSLARTTAMDYWGEGTLVTVSSASTKGPSVFPLAPSSKSTSGGTAALGCLVKDYFPEPVTVSWNSGALTSGVHTFPAVLQSSGLYSLSSVVTVPSSSLGTQTYICNVNHKPSNTKVDKKVEPKSCDKTHTCPPCPAPEYLGDDSVFLFPPKPKDTLMISRTPEVTCVVVDVSHEDPEVKFNWYVDGVEVHNAKTKPREEQYNSTYRVVSVLTVLHQDWLNGKEYKCKVSNAALPRPIEKTISKAKGQPREPQVYTLPPSRDELTKNQVSLTCLVKGFYPSDIAVEWESNGQPENNYKTTPPVLDSDGSFFLYSKLTVDKSRWQQGNVFSCSVMHEALHNHYTQESLSLSP
light: DIQMTQSPSSLSASVGDRVTITCRASQDISSYLNWYQQKPGKAPKLLIYYTSRLHSGVPSRFSGSGSGTDFTFTISSLQPEDIATYYCQQGNTLPYTFGQGTKVEIK
notes: EU numbering
B8: IL6R-BP130/IL6R-L (antibody, human IgG1)
heavy: QVQLQESGPGLVKPSETLSLTCAVSGHSISHDHAWSWVRQPPGEGLEWIGFISYSGITNYNPSLQGRVTISRDNSKNTLYLQMNSLRAEDTAVYYCARSLARTTAMDYWGEGTLVTVSSASTKGPSVFPLAPSSKSTSGGTAALGCLVKDYFPEPVTVSWNSGALTSGVHTFPAVLQSSGLYSLSSVVTVPSSSLGTQTYICNVNHKPSNTKVDKKVEPKSCDKTHTCPPCPAPDLLGGDSVFLFPPKPKDTLMISRTPEVTCVVVDVSHEDPEVKFNWYVDGVEVHNAKTKPREEQYNSTYRVVSVLTVLHQDWLNGKEYKCKMSNKALPKPIEKTISKAKGQPREPQVYTLPPSRDELTKNQVSLTCLVKGFYPSDIAVEWESNGQPENNYKTTPPVLDSDGSFFLYSKLTVDKSRWQQGNVFSCSVMHEALHNHYTQESLSLSP
light: DIQMTQSPSSLSASVGDRVTITCRASQDISSYLNWYQQKPGKAPKLLIYYTSRLHSGVPSRFSGSGSGTDFTFTISSLQPEDIATYYCQQGNTLPYTFGQGTKVEIK
notes: copies: 2 + 2

Experiments:
[1] = target: T1, human FcγRIIb; assay: SPR (Biacore), antibody captured on chip, FcγR as analyte; binding amount divided by that of IL6R-F652/IL6R-L, times 100
[2] = target: T2, human FcγRIIa type R; assay: as above
[3] = target: T3, human FcγRIIb; assay: ratio of this variant's SPR KD for FcγRIIaH to its KD for FcγRIIb
Source text: (§1) Furthermore, KD(IIaR)/KD(IIb) and KD(IIaH)/KD(IIb) in the table respectively represent the value obtained by dividing the KD value of each variant for FcγRIIaR by the KD value of each variant for FcγRIIb, and the value obtained by dividing the KD value of each variant for FcγRIIaH by the KD value of each variant for FcγRIIb.

[4] = target: T3, human FcγRIIb; assay: ratio of this variant's SPR KD for FcγRIIaR to its KD for FcγRIIb
Source text: as §1

[5] = target: T4, FcγRIIb; assay: ratio of SPR KD values of this variant (FcγRIIaH over FcγRIIb)
Source text: as §1

[6] = target: T4, FcγRIIb; assay: ratio of SPR KD values of this variant (FcγRIIaR over FcγRIIb)
Source text: as §1

| Binder | KD (IIaH)/KD (IIb) [3] | KD (IIaR)/KD (IIb) [4] | further results |
| --- | --- | --- | --- |
| B1 |  |  | relative binding activity for FcγRIIb [1]: 139 % of the binding amount of IL6R-F652/IL6R-L; relative binding activity for FcγRIIaR [2]: 844 % of the binding amount of IL6R-F652/IL6R-L |
| B2 | 106 | 13.3 |  |
| B3 | 89.9 | 17.1 |  |
| B4 |  |  | KD (IIaH)/KD (IIb) [5]: 118; KD (IIaR)/KD (IIb) [6]: 16.9 |
| B5 | 49.9 | 9.9 |  |
| B6 | 0.3 | 0.4 |  |
| B7 |  |  | KD (IIaH)/KD (IIb) [5]: 109; KD (IIaR)/KD (IIb) [6]: 17.7 |
| B8 | 55.5 | 17.5 |  |
